Data taken from FireProtDB (doi:10.1021/bi00042a027).
Values joined by “and” are separate entries in the source; they are usually repeats but may differ in a detail not shown here. Equal values may be shown once.

B1: Phosphoglycerate kinase, P00560 (parent)
chain: MSLSSKLSVQDLDLKDKRVFIRVDFNVPLDGKKITSNQRIVAALPTIKYVLEHHPRYVVLASHLGRPNGERNEKYSLAPVAKELQSLLGKDVTFLNDCVGPEVEAAVKASAPGSVILLENLRYHIEEEGSRKVDGQKVKASKEDVQKFRHELSSLADVYINDAFGTAHRAHSSMVGFDLPQRAAGFLLEKELKYFGKALENPTRPFLAILGGAKVADKIQLIDNLLDKVDSIIIGGGMAFTFKKVLENTEIGDSIFDKAGAEIVPKLMEKAKAKGVEVVLPVDFIIADAFSADANTKTVTDKEGIPAGWQGLDNGPESRKLFAATVAKAKTIVWNGPPGVFEFEKFAAGTKALLDEVVKSSAAGNTVIIGGGDTATVAKKYGVTDKISHVSTGGGASLELLEGKELPGVAFLSEKK

Variants of: B1
Conditions: Saccharomyces cerevisiae (strain ATCC 204508 / S288c), pH 7.5, 25 °C, GdnHCl, Sodium phosphate 20 mM, structure 3PGK, whole UniProt chain shown

Variant | ddG of mutation (higher = less stable) (CD, transition: 3) | denaturant m value (CD, transition: 3) | denaturant midpoint (higher = more stable) (CD, transition: 3) | unfolding free energy (CD, transition: 3) | denaturant m value (Fluorescence) [kcal/mol/M] | denaturant midpoint (higher = more stable) (Fluorescence) [M] | unfolding free energy (Fluorescence) [kcal/mol] | denaturant midpoint (higher = more stable) (Fluorescence, transition: 3) | unfolding free energy (Fluorescence, transition: 3) | denaturant m value (Fluorescence, transition: 3) | ddG of mutation (higher = less stable) (CD) [kcal/mol] | denaturant m value (CD) [kcal/mol/M] | denaturant midpoint (higher = more stable) (CD) [M] | unfolding free energy (CD) [kcal/mol] | ddG of mutation (higher = less stable) (Fluorescence, transition: 3) | ddG of mutation (higher = less stable) (Fluorescence) [kcal/mol]
L400W | 2.68 kcal/mol and 3.31 kcal/mol | 8.1 kcal/mol/M and 5.3 kcal/mol/M | 0.42 M and 0.95 M | 3.4 kcal/mol and 5.06 kcal/mol | 10.7 | 0.39 | 4.15 |  |  |  |  |  |  |  |  | 
F195W | 0.64 kcal/mol | 10.2 kcal/mol/M | 0.53 M | 5.44 kcal/mol |  |  |  | 0.52 M and 0.91 M | 6.3 kcal/mol and 2.68 kcal/mol |  |  |  |  |  |  | 
Y49W W334Y |  |  | 0.51 M and 0.91 M | 7.89 kcal/mol and 3.64 kcal/mol |  |  |  | 0.53 M and 0.9 M | 6.85 kcal/mol and 4.45 kcal/mol | 12.9 kcal/mol/M and 5 kcal/mol/M |  |  |  |  |  | 
Y123W | 5.65 kcal/mol | 3.2 kcal/mol/M | 0.86 M | 2.72 kcal/mol |  |  |  | 0.4 M and 0.91 M | 4.81 kcal/mol and 3.45 kcal/mol |  | 1.29 | 13.7 | 0.42 | 5.79 | 0.57 kcal/mol and 0.91 kcal/mol | 
W309Y |  | 10.9 kcal/mol/M and 5.8 kcal/mol/M | 0.62 M and 0.84 M | 6.85 kcal/mol and 4.87 kcal/mol | 14.8 | 0.64 | 9.42 |  |  |  |  |  |  |  |  | 
Y49W | 1.77 kcal/mol and 4.83 kcal/mol |  | 0.41 M and 1.06 M | 4.31 kcal/mol and 3.54 kcal/mol |  |  |  | 0.42 M and 0.92 M | 5.31 kcal/mol and 3.8 kcal/mol |  |  |  |  |  |  | 
W334Y |  |  | 0.63 M and 0.82 M |  | 12.4 | 0.62 | 7.66 |  |  |  |  |  |  |  |  | 
Y49W W309Y |  |  | 0.55 M and 0.96 M | 5.93 kcal/mol and 2.34 kcal/mol | 12.7 | 0.54 | 6.84 | 0.92 M | 4.94 kcal/mol | 5.4 kcal/mol/M |  |  |  |  | -0.58 kcal/mol | -1.46
